Laboratory results reported in paper PMC4476693, “Role of Subunit Exchange and Electrostatic Interactions on the Chaperone Activity of Mycobacterium leprae HSP18” (PLoS ONE, 2015).

Tests used:
[1] = molecular target: the molecule itself; experiment: SEC; analytical gel filtration (TSK-GEL G4000SWXL, HPLC), 25°C, 0.5 mg/ml protein in 50 mM phosphate buffer pH 7.5, no NaCl; column calibrated with molecular weight standards
[2] = molecular target: the molecule itself; experiment: SEC; analytical gel filtration (TSK-GEL G4000SWXL, HPLC), 25°C, 0.5 mg/ml protein in 50 mM phosphate buffer pH 7.5 with 0.05, 0.15 or 0.5 M NaCl; number of subunits printed for 0.5 M NaCl

B1: Mycobacterium leprae HSP18 (natural protein, UniProt P12809 1-148, looked up)
chain: MLMRTDPFRELDRFAEQVLGTSARPAVMPMDAWREGEEFVVEFDLPGIKADSLDIDIERNVVTVRAERPGVDPDREMLAAERPRGVFNRQLVLGENLDTERILASYQEGVLKLSIPVAERAKPRKISVDRGNNGHQTINKTAHEIIDA
notes: wild-type small heat shock protein HSP18 (18 kDa antigen) of Mycobacterium leprae; Large homo-oligomer: 29 subunits without NaCl, approximately 12 subunits in 0.5 M NaCl (gel filtration); also called 18 kDa antigen
- stoichiometry N [1]: 29 subunits
- stoichiometry N [2]: ~12 subunits
